Data on one protein can be found in doi:10.1101/2025.11.14.688508 (bioRxiv, 2025).

This data set deals with the molecule itself. In words: SEC.

B1: DY-647P1-labeled recombinant human Bax single cysteine mutant (S4C, C62S, C126S) (natural protein)
chain: MDGCGEQPRGGGPTSSEQIMKTGALLLQGFIQDRAGRMGGEAPELALDPVPQDASTKKLSESLKRIGDELDSNMELQRMIAAVDTDSPREVFFRVAADMFSDGNFNWGRVVALFYFASKLVLKALSTKVPELIRTIMGWTLDFLRERLLGWIQDQGGWDGLLSYFGTPTWQTVTIFVAGVLTASLTIWKKMG
modifications: cysteine labeling with DY-647P1 (single cysteine mutant; degree of labeling ~74 %)
As for B1, the binding result was “binds”.
